No end group written: not given here.
B1: peptide No. 7 (AKAP18δ-derived, FIG. 3) (peptide)
peptide: ANDARLVRLSKRLVENAVLKAVQQY
notes: also called peptide 7; No. G
B2: A18δRIIαHs1 (14/14) (peptide)
peptide: ANDARLVRLSKRLRENAVLKAVQQY
notes: Member of the substitution library of peptide 7 (row 14, peptide 14); also called No. BB
B3: A18δRIIαHs2 (14/19) (peptide)
peptide: ANDARLVRLSKRLYENAVLKAVQQY
notes: Member of the substitution library of peptide 7 (row 14, peptide 19); also called No. CC
B4: A18δRIIαRn2 (10/11) (peptide)
peptide: ANDARLVRLNKRLVENAVLKAVQQY
notes: Member of the substitution library of peptide 7 (row 10, peptide 11); also called peptide 10/11; No. EE
B5: Peptide 3 (peptide)
peptide: ASDAQLVRLSKRLVENAVLKAVQQY
notes: AKAP18δ-derived; also called No. C
B6: Peptide 4 (peptide)
peptide: ASDAKLVRLSKRLVENAVLKAVQQY
notes: AKAP18δ-derived; also called No. D
B7: Peptide 5 (peptide)
peptide: ARDAKLVRLSKRLVENAVLKAVQQY
notes: AKAP18δ-derived; also called No. E
B8: Peptide 6 (peptide)
peptide: ARDAQLVRLSKRLVENAVLKAVQQY
notes: AKAP18δ-derived; also called No. F
B9: Peptide 8 (peptide)
peptide: ASDARLVRLSKRLVENAVLKAVQQY
notes: AKAP18δ-derived; also called No. H
B10: Peptide 9 (peptide)
peptide: ASDAKTVRLSKRLVENAVLKAVQQY
notes: AKAP18δ-derived; also called No. I
B11: Peptide 10 (peptide)
peptide: ANDAKTERLSKRLVENAVLKAVQQY
notes: AKAP18δ-derived; also called No. J
B12: Peptide 11 (peptide)
peptide: ANDAKTERLSQRLVENAVLKAVQQY
notes: AKAP18δ-derived; also called No. K
B13: Peptide 12 (peptide)
peptide: ANDAKTQRLSQRLVENAVLKAVQQY
notes: AKAP18δ-derived; also called No. L
B14: AKAP18δ-L314E (peptide)
peptide: PEDAELVRLSKRLVENAVEKAVQQY
notes: also called AKAP18delta-L314E; No. W
B15: Peptide 14 (peptide)
peptide: PEDAELVRLSKRLVENAVLQAVQQY
notes: AKAP18δ-derived; also called No. N
B16: Peptide 15 (peptide)
peptide: PEDAELVRLSKRLVENAVLNGVQQY
notes: AKAP18δ-derived; also called No. O
B17: Peptide 16 (peptide)
peptide: PEDAELVRLSKRLVENAVLNGQQQY
notes: AKAP18δ-derived; also called No. P
B18: Peptide 17 (peptide)
peptide: PEDAELVRLSKRLVENAVLNGNQQY
notes: AKAP18δ-derived; also called No. Q
B19: Peptide 18 (peptide)
peptide: PEDAELVRLSKRLVENAVKNGNQQY
notes: AKAP18δ-derived; also called No. R
B20: Peptide 19 (peptide)
peptide: PEDAELVRLSKRLVENAVKNGAQDY
notes: AKAP18δ-derived; also called No. S

What was measured:
[1] = target: T1, regulatory RIIα subunits of PKA (Homo sapiens, UniProt P13861); experiment: RII overlay of membrane-bound (SPOT) peptides, radiolabelled RIIα as probe, densitometry; type: binding; conditions: for binding to RIIα subunits in RII overlay: human RIIα as probe, in words
T1 construct: Prof; Dr. Friedrich W. Herberg, University of Kassel, Germany (obtained from an academic laboratory, not a vendor)
T1 sequence (P13861 whole entry): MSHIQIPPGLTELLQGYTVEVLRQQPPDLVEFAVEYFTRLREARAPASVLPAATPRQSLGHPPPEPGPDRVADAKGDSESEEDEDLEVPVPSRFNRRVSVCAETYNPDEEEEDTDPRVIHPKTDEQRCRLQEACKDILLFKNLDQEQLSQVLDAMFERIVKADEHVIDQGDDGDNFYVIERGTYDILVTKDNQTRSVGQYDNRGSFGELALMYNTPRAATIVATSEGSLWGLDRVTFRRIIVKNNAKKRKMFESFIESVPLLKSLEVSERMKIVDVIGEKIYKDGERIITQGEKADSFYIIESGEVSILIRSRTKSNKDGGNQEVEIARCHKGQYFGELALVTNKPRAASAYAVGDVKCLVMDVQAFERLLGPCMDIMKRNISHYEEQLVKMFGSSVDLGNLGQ
Text: (§1) Peptide libraries were synthesized by means of automatic SPOT synthesis on Whatman 50 cellulose membranes according to standard protocols using Fmoc chemistry and AutoSpot Robot ATE 222 (Intavis Bioanalytical Instruments AG, Cologne). The protective groups of the amino acid side chains were removed using a mixture of trifluoroacetic acid (TFA) in dichloromethane (DCM) (Frank, 1992; Kramer and Schneider-Mergener, 1998). For control, spots (about 50 nmol of peptide per spot) were cut from the cellulose membrane, removed from the membrane by treatment with 0.05 M NaOH, and analyzed using HPLC and MALDI-TOF mass spectrometry.
(§2) • 1. Regulatory RIIα (human) and RIIβ (rat) subunits of PKA, obtained from Prof. Dr. Friedrich W. Herberg, University of Kassel, Germany. • 2. Catalytic subunits of PKA, Promega, Mannheim, Germany, Order No. V5161 • 3. [γ-^32P]ATP, 5000 Ci/mmol, Amersham Biosciences, Brunswick, Germany, Order No. AA0018 • 4. Sephadex G 50, medium Pharmacia, Order No. 17-0043-01 • 5. Phosphate-buffered saline (PBS)
(§3) The ATP concentration was adjusted to 10 μM by addition of non-radioactive ATP (addition of 5 μl of a 1 mM solution). The batch was incubated on ice for another 50 min.
(§4) The reaction was quenched by adding dextran blue and removing free nucleotides. The free ATP was removed on a Sephadex G50 column.
(§5) Non-incorporated nucleotides were separated from the RII subunits by fractionation on Sephadex G 50 columns. • 1. Swelling of the Sephadex G 50 material: 20 g thereof was allowed to swell in 400 ml of PBS at room temperature overnight. Non-settled material was subsequently removed with a Pasteur pipette. The swollen material was aliquoted in 50 ml Falcon tubes and stored at 4° C. For preservation, sodium azide was added to make a final concentration of 0.01%. • 2. The material was poured into a 10 ml sterile disposable pipette sealed with a glass sphere. To settle the column bed, 50 ml of PBS containing 1 mg/ml BSA (bovine serum albumin) was allowed to pass.
(§6) Until used, the column was sealed with parafilm at the top thereof. • 3. The labelled RII subunits (500 μl), together with dextran blue (70 μl of a 20 mg/ml solution), were applied on the column (overall volume=570 μl). • 4. The sample was allowed to migrate into the matrix, followed by filling up with PBS. • 5. A short time before the dextran blue was eluted, collection of fractions was begun (2 fractions of 1.5 ml each, the other fractions 1 ml each). • 6. To determine the incorporation of ^32P, 1% (5.7 μl) of sample upstream of the column (corresponding to 1% of the radioactivity employed) and 3 μl of each fraction were used. • 7. The fractions of the first peak including the probe were combined. The incorporation rate in % was calculated and the specific activity (cpm/μg of protein) was determined.
(§7) • 1. The proteins (40 μg) were separated by means of SDS-PAGE and transferred on a PVDF membrane (PVDF: polyvinylidene fluoride) using a semi-dry electroblotting procedure. The membrane-associated proteins were stained with Ponceau S in order to identify the marker proteins on the membrane. Destaining was effected using TBS. • 2. The membrane was incubated in Blotto/BSA at 4° C. for 16 hours:
(§8) • 3. Blotto/BSA was replaced with fresh one and ^32P-labelled RII subunits were added (10^5 cpm/ml). This was incubated for 4-6 h at room temperature. • 4. The membrane was washed for 4×15 min in Blotto/BSA and for 2×10 min in 10 mM potassium phosphate buffer, pH 7.4, 0.15 M NaCl. • 5. RII-binding proteins were detected by exposition on a phosphoimager plate.
(§9) Identification of AKAP18δ-derived peptides inhibiting the interaction of AKAP proteins with the regulatory RIIα and RIIβ subunits of PKA. A: Peptides derived from the PKA binding domain of AKAP18δ were synthesized on two membranes. The membranes were incubated with radiolabelled regulatory RIIα (upper row) or RIIβ subunits (row below) of the PKA (RII overlay experiment). […]

[2] = target: T2, regulatory RIIβ subunits of PKA (Rattus norvegicus, UniProt P12369); experiment: RII overlay of membrane-bound (SPOT) peptides, radiolabelled RIIβ as probe, densitometry; type: binding; conditions: in words
T2 construct: Prof; Dr. Friedrich W. Herberg, University of Kassel, Germany (obtained from an academic laboratory, not a vendor)
T2 sequence (P12369 whole entry): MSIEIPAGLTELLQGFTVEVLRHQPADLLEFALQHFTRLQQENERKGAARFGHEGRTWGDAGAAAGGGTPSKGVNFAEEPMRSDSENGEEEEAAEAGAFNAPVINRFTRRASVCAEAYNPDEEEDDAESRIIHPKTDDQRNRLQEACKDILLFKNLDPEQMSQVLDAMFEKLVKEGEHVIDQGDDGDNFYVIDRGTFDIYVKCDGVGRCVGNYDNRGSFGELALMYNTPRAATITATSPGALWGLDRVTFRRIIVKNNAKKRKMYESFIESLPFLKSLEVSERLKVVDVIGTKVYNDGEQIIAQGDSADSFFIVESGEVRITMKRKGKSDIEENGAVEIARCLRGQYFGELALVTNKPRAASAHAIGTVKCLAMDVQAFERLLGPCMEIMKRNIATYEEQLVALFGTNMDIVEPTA
Text: as §1, §2, §3, §4, §5, §6, §7, §8, §9

RII subunits of the PKAs = experiment: Summary statement on RII binding of AKAP18δ-derived negative control peptides; conditions: negative controls; in words
Text: They have in common that binding is no longer present due to structural differences (1, 2) or differences in charge (3, 4).

human RIIα subunits = human RIIα subunits (Homo sapiens, UniProt P13861); experiment: Surface plasmon resonance measurement of peptide binding to RIIα
Sequence of human RIIα subunits (P13861 whole entry): as the sequence (P13861 whole entry) above

RIIβ subunits from rats = RIIβ subunits from rats (Rattus norvegicus, UniProt P12369); experiment: Surface plasmon resonance measurement of peptide binding to RIIβ
Sequence of RIIβ subunits from rats (P12369 whole entry): as the sequence (P12369 whole entry) above

[3] = target: T3, regulatory RIIα subunit of PKA (human) (human, UniProt P13861 1-404, 32P-labelled with the catalytic subunit of PKA when used as probe in the RII overlay experiments); experiment: RII overlay: SPOT peptide on membrane, 32P-labelled RIIα probe, phosphoimager, densitometry as % of AKAP18δ-wt
T3 construct: Radiolabelled probe in RII overlays; format in the surface plasmon resonance measurements is not described; also called human RIIα
T3 sequence (P13861 whole entry): as the sequence (P13861 whole entry) above

[4] = target: T4, regulatory RIIβ subunit of PKA (rat) (rat, UniProt P12369 1-416, 32P-labelled with the catalytic subunit of PKA when used as probe in the RII overlay experiments); experiment: RII overlay: SPOT peptide on membrane, 32P-labelled RIIβ probe, phosphoimager, densitometry as % of AKAP18δ-wt
T4 construct: Radiolabelled probe in RII overlays; format in the surface plasmon resonance measurements is not described; also called RIIβ subunit of PKA from rats
T4 sequence (P12369 whole entry): as the sequence (P12369 whole entry) above

[5] = target: T3, regulatory RIIα subunit of PKA (human); experiment: RII overlay on SPOT membrane with radiolabelled RIIα
[6] = target: T4, regulatory RIIβ subunit of PKA (rat); experiment: RII overlay on SPOT membrane with radiolabelled RIIβ
[7] = target: T4, regulatory RIIβ subunit of PKA (rat); experiment: surface plasmon resonance

| Molecule | binding result [3] | binding result [4] | other results |
| --- | --- | --- | --- |
| ANDARLVRLNKRLVENAVLKAVQQY [10/11] | – | – | binding to RIIα subunits in RII overlay [1]: bind RIIα; binding to RIIβ subunits in RII overlay [2]: no RIIβ |
| ANDARLVRLPKRLVENAVLKAVQQY [10/12] | – | – | binding to RIIα subunits in RII overlay [1]: bind RIIα; binding to RIIβ subunits in RII overlay [2]: no RIIβ |
| ANDARLVRLSKRLRENAVLKAVQQY [A18δRIIα Hs1] | – | – | binding to RIIα subunits in RII overlay [1]: binding to RIIα |
| ANDARLVRLSKRLVENAVLKAVQQY [peptide No. 7] | – | – | difference in binding of the two PKA subunits (RIIα vs RIIβ) ([1]; RII overlay on two membranes, quantitative evaluation (FIG. 3)): marked difference |
| ANDARLVRLSKRLVENAVLKFVQQY [21/4] | – | – | binding to RIIα subunits in RII overlay [1]: vice versa; binding to RIIβ subunits in RII overlay [2]: vice versa; binding to RIIβ subunits in RII overlay ([2]; listed as A18δRIIβRn1): binding to RIIβ; binding to RIIβ subunits in RII overlay ([2]; listed as A18δRIIβRnl): selectively binds RIIβ subunits |
| ANDARLVRLSKRLYENAVLKAVQQY [A18δRIIα Hs2] | – | – | binding to RIIα subunits in RII overlay [1]: binding to RIIα |
| PEDAELVRLDKRLPENAPLKAVQQY (also: phosphorylated; listed as Homo sapiens) [AKAP18δ-phos] | – | – | binding of RII subunits of the PKAs (RII subunits of the PKAs): absent binding |
| PEDAELVRLSKRDVENAVLKAVQQY [AKAP18δ-L308D] | – | – | RIIα binding KD (human RIIα subunits): no binding; RIIβ binding KD (RIIβ subunits from rats): no binding; binding to RIIα subunits in RII overlay [1]: weaker; binding to RIIβ subunits in RII overlay [2]: weaker; binding of RII subunits of the PKAs (RII subunits of the PKAs): absent binding |
| PEDAELVRLSKRLPENAPLKAVQQY [AKAP18δ-PP] | – | – | RIIα binding KD (human RIIα subunits): no binding; RIIβ binding KD (RIIβ subunits from rats): no binding; binding of RII subunits of the PKAs (RII subunits of the PKAs): absent binding |
| PEDAELVRLSKRLPENAVLKAVQQY [AKAP18δ-P] | – | – | RIIα binding KD (human RIIα subunits): no binding; RIIβ binding KD (RIIβ subunits from rats): no binding; binding of RII subunits of the PKAs (RII subunits of the PKAs): absent binding |
| PEDAELVRLSKRLVENAVLKAVQQY [AKAP18δ-wt] | – | – | Kd (human RIIα subunits): 0.4 to 1.5 nM; Kd (RIIβ subunits from rats): 1 to 6 nM |
| B1 | binds | binds | – |
| B2 | – | – | binding result [5]: binds |
| B3 | – | – | binding result [5]: binds |
| B4 | – | – | binding result [5]: binds; binding result [6]: no binding |
| B5 | binds | binds | – |

| Molecule | binding result [3] | binding result [4] | other results |
| --- | --- | --- | --- |
| B6 | binds | binds | – |
| B7 | binds | binds | – |
| B8 | binds | binds | – |
| B9 | binds | binds | – |
| B10 | binds | binds | – |
| B11 | binds | binds | – |
| B12 | binds | binds | – |
| B13 | binds | binds | – |
| B14 | – | – | Kd [7]: 22 nM |
| B15 | binds | binds | – |
| B16 | binds | binds | – |
| B17 | binds | binds | – |
| B18 | binds | binds | – |
| B19 | binds | binds | – |
| B20 | binds | binds | – |

Source: patent US20090104177A1, “PEPTIDES FOR INHIBITING THE INTERACTION OF PROTEIN KINASE A AND PROTEIN KINASE A ANCHOR PROTEINS” (FORSCHUNGSVERBUND BERLIN E.V., priority 2004, published 2009)
